The values below come from US20220380739A1 (Boehringer Ingelheim, published 2022).

Assay [1] concerns the target 6H-GSG-VDVAD-BIWA4. Kind of assay: cell-based or functional assay.
Assay [2] deals with 6H-GSG-VDVAD-BIWA4. Kind of assay: cell-based or functional assay. This is another data set of the same source.

Read-outs that look alike come from different tables or passages of the source.

6H-GSG-VDVAD-BIWA4, sequence (scFv, as listed by the source): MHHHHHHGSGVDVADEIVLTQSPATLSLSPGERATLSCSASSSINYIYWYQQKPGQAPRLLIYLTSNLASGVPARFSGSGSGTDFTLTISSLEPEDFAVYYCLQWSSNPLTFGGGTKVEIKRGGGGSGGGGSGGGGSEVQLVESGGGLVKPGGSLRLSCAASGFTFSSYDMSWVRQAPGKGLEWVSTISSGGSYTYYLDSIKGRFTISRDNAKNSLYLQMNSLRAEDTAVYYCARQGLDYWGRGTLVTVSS

B1: T7AC_6H_mS9ProE (enzyme)
chain: MLEDPERNKERKEAELQAQTAEQHHHHHHGKNHAGSPGCEESAAGKEKLPKMRLPTRSDMICGYACLKGTAAMRNTKRGSWYIEALAQVFSERACDMHVADMLVKVNALIKDREGYAPGTEFHRCKVMSEYCSTLCRHLYLFPGHPPTGSGPVCLQVKPCTPEFYQTHFQLAYRLQSRPRGLALVLSNVHFTDEKELEFRSGGDVDHSTLVTLFKLLGYDVHVLCDQTAQEMQEKLQNFAQLPAHRGTDSCIVALLSHGVEGAIYGVDGKLLQLQEVFQLFDNANCPSLQNKPKMFFIQACRGEETERGVDQQD
In the case of B1, the KM in the assay with 6H-GSG-VDVAD-BIWA4 [1] and with 6H-GSG-VDVAD-BIWA4 [2] was 0.00016 each time.

B2: T7AC_6H_mS9ProD (enzyme)
chain: MLEDPERNKERKEAELQAQTAEQHHHHHHGKNHAGSPGCEESAAGKEKLPKMRLPTRSDMICGYACLKGTAAMRNTKRGSWYIEALAQVFSERACDMHVADMLVKVNALIKDREGYAPGTEFHRCKVMSEYCSTLCRHLYLFPGHPPTGSGPVCLQVKPCTPEFYQTHFQLAYRLQSRPRGLALVLSNVHFTDEKELEFRSGGDVDHSTLVTLFKLLGYDVHVLCDQTAQEMQEKLQNFAQLPAHRGTDSCIVALLSHGVEGAIYGVDGKLLQLQEVFQLFDNANCPSLQNKPKMFFIQACRGEETDRGVDQQD
As for B2, the KM with 6H-GSG-VDVAD-BIWA4 [1] and with 6H-GSG-VDVAD-BIWA4 [2] was 0.00023 throughout.
